The record followed here is paper PMC7743911 (Nature communications, 2015).

The target of test [1] is T1, STAT5B wild type (residues 128 to 717), non-phosphorylated (human, UniProt P51692 128-717).
T1 sequence (looked up): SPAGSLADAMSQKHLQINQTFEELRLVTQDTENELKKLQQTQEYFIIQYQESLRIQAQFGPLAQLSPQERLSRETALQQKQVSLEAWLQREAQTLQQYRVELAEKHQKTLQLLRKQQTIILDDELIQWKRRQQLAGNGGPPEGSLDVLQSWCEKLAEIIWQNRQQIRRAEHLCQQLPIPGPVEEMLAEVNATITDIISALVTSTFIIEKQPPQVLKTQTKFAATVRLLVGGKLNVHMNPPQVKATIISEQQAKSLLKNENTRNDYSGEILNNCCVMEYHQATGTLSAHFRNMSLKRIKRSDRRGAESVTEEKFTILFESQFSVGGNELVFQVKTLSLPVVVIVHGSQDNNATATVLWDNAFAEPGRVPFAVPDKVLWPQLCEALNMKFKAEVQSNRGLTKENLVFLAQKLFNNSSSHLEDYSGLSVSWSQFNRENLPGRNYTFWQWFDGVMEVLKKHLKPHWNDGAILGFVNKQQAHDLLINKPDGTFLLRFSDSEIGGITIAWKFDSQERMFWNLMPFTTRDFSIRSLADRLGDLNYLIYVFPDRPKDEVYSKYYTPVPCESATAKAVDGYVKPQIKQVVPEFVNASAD
The test is described as follows: SPR.

Test [2] has as its target T2, STAT5B N642H mutant (residues 128 to 717), non-phosphorylated (human, UniProt P51692 128-717, N642H).
T2 sequence (looked up): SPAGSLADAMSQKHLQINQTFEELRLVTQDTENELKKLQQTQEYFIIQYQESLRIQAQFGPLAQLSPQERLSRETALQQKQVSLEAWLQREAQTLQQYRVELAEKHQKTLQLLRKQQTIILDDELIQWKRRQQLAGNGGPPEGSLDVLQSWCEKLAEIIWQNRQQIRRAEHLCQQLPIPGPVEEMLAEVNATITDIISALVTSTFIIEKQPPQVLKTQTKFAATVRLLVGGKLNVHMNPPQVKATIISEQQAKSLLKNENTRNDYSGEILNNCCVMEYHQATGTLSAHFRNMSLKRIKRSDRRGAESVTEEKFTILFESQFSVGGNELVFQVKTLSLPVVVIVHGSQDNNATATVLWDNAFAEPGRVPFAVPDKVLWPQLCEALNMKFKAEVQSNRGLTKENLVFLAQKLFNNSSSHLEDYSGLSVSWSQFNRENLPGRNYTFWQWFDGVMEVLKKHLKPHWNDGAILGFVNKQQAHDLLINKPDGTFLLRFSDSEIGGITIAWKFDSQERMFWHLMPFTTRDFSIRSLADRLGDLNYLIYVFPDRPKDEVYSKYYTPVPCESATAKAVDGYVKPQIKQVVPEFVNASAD
The test is described as follows: SPR. On the technique in general: Surface plasmon resonance follows binding to a sensor surface in real time, without labels.

“And” between values parts separate entries of the source, which are not always exact repeats. Equal values may be shown once. Non-standard residues stand in square brackets, D forms with d. No end group written: not given here. pY = N[C@@H](Cc1ccc(OP(=O)(O)O)cc1)C(=O)O

As a reminder, the Kd is a measure of binding affinity in units of concentration. A higher Kd goes with a looser complex. On to KAVDG[pY]VKPQI [STAT5B phosphopeptide KAVDG(p)YVKPQI], for which the Kd in test [1] was 15.6 µM and 14 µM; in test [2], 3.23 µM and 2.9 µM.
